Key:
Test in all cases: flow cytometry on cells
[1] = target: MHV-A59 S protein I22A (mouse hepatitis virus A59)
[2] = target: MHV-A59 S protein R20A (mouse hepatitis virus A59)
[3] = target: MHV-A59 S protein Y15A/L160A (mouse hepatitis virus A59)

Question: What does the source list for soluble receptor mCEACAM1a[1,4]?
Answer: reduction of receptor binding against WT [1]: 83%; reduction of receptor binding against WT [2]: 61%; reduction of receptor binding against WT [3]: > 65%

From article PMC6798120
